Molecular target: T1, EGFP-RABL2B, Q9UNT1
T1 chain: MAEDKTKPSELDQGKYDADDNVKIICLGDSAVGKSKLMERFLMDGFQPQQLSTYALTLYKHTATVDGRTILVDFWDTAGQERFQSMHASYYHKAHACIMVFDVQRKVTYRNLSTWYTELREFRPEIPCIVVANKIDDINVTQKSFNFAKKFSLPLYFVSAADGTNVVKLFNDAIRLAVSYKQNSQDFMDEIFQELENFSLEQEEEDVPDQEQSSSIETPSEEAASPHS
Assay: co-immunoprecipitation (IP anti-EGFP, Western blot anti-Myc), IP/input band quantitation
Details: chain shown with the change; lysates from HEK293T cells; Input is 2.5% of lysate used for IP; parent: 100

B1: CD8α-(HTR6-CT)-myc, Q9R1C8 L398A; L399A; L400A (protein)
chain: MVPEPGPVNSSTPAWGPGPPPAPGGSGWVAAALCVVIVLTAAANSLLIALICTQPALRNTSNFFLVSLFTSDLMVGLVVMPPAMLNALYGRWVLARGLCLLWTAFDVMCCSASILNLCLISLDRYLLILSPLRYKLRMTAPRALALILGAWSLAALASFLPLLLGWHELGKARTSAPGQCRLLASLPYVLVASGVTFFLPSGAICFTYCRILLAARKQAVQVASLTTGTATAGQALETLQVPRTPRPGMESADSRRLTTKHSRKALKASLTLGILLSMFFVTWLPFFVASIAQAVCDCISPGLFDVLTWLGYCNSTMNPIIYPLFMRDFKRALGRFVPCVHCPPEHRASPASPSMWTSHSGARPGLSLQQVLPLPLPPNSDSDSASGGTSGLQLTAQAAAPGEATRDPPPPTRAPTVVNFFVTDSVEPEIRQHPLGSPMN
percent of parent: 243%
